The target of experiment [1] is MCPyV large T antigen (LT) peptide on HLA-A*03:01 (human). Kind of experiment: IFNγ ELISA. The conditions noted are these: chains alpha TRAV3*00 CDR3:beta TRBV4-3*00 CDR3.
Experiment [2] has as its target MCPyV common T antigen (CT; shared N-terminal domain of LT and ST) peptide on HLA-A*03:01 (human). Nature of the experiment: IFNγ ELISA.
The mark [3] stands for this setting: chains alpha TRAV12-1*00 CDR3:beta TRBV19*00 CDR3.

Here are results for four molecules from PMC7196523.

B1: TCR clonotype 1 specific for MCPyV LT AA 95–103 (subject 1233) (peptide)
chain 1: CAVRALGNAGNMLTF
chain 2: CASSPNPQGANMDTQYF
For B1, the EC50 of peptide in experiment [1] came to 0.0019 µg/mL.

B2: TCR clonotype 2 specific for MCPyV CT AA 32–40 (subject 1233) (peptide)
chain 1: CVVNNNNNDMRF
chain 2: CASVSGQGVSPLHF
On to B2, for which the EC50 of peptide in experiment [2] (setting [3]) turned out to be 0.0236 µg/mL.

B3: TCR clonotype 1 specific for MCPyV CT AA 32–40 (subject 1233) (peptide)
chain 1: CVVNGNNNDMRF
chain 2: CASSQGFGANVLTF
As for B3, in experiment [2] (setting [3]), the EC50 of peptide was found to be 0.0076 µg/mL.

B4: TCR clonotype 3 specific for MCPyV CT AA 32–40 (subject 1233) (peptide)
chain 1: CAGARNDYKLSF
chain 2: CATSRDGAGLVNQPQHF
Consider B4, for which the EC50 of peptide in experiment [2] (chains alpha TRAV25*00 CDR3:beta TRBV15*00 CDR3) was 0.0234 µg/mL.
